Experimental data as given in US8211422.

Biological target: GA733 antigen (37 kD protein expressed on colorectal carcinoma cells) (UniProt P16422)
Assay: cell-based or functional assay

Chain of UniProt P16422 (P16422 24-314): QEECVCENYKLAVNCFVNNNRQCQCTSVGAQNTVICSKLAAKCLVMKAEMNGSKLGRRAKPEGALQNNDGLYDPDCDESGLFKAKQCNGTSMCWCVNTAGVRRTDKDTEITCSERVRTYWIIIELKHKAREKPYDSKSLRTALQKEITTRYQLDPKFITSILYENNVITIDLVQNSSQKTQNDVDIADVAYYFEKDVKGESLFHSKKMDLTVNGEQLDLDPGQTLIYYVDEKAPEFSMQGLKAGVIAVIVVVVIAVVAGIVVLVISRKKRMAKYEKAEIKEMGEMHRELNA

## chimeric receptor GA733-γ (scFv of MAb GA733 joined to the γ chain of the Fc receptor)
  % Specific Lysis of CY13, effector:target 3.3:1: 10.3%
  % Specific Lysis of CY13, effector:target 10:1: 22.2%
  % Specific Lysis of CY13, effector:target 30:1: 38.7%
  % Specific Lysis of CY13, effector:target 90:1: 52.2%
  GM-CSF production by PBL (stimulator CY13) (pg/ml/5 × 10^5 PBL/24 hours): 1280
  GM-CSF production by PBL (stimulator GREM) (pg/ml/5 × 10^5 PBL/24 hours): 2980
